One test has as its target GNMT D70A mutant (UniProt Q14749). Put plainly: SEC; size-exclusion chromatography of wild type GNMT and catalytic-centre mutants; data not shown.
A further test has as its target GNMT L210S mutant (UniProt Q14749). Nature of the test: SEC; size-exclusion chromatography on Sephacryl S300 of the folate-site mutants. On the technique in general: In gel filtration, larger molecules generally elute earlier.
The target of another test is GNMT M218D mutant (UniProt Q14749). The test is described as above.
A further test has as its target GNMT W30F mutant (UniProt Q14749). Nature of the test: SEC; size-exclusion chromatography of wild type GNMT and catalytic-centre mutants; data not shown.
In the next test the target is GNMT Y6E mutant (UniProt Q14749). Put plainly: SEC; size-exclusion chromatography on Sephacryl S300 of the folate-site mutants.
In the next test the target is GNMT Y244A mutant (UniProt Q14749). Put plainly: SEC; size-exclusion chromatography of wild type GNMT and catalytic-centre mutants; data not shown.
The target in test [1] is Glycine N-methyltransferase, wild type (UniProt Q14749). Described as above.

With “GNMT D70A mutant (from UniProt Q14749 1-295) (enzyme)”, the stoichiometry N (in general, the number of molecules, sites or subunits per partner or assembly) with GNMT D70A mutant is 4.

In the test with GNMT L210S mutant, “GNMT L210S mutant (from UniProt Q14749 1-295) (enzyme)” registered a percent of the protein as dimer of 50%, a percent of the protein as monomer of 10% and a percent of the protein as tetramer of 40%.

Substance “GNMT M218D mutant (from UniProt Q14749 1-295) (enzyme)” came in with a stoichiometry N with GNMT M218D mutant of 4.

Consider “GNMT W30F mutant (from UniProt Q14749 1-295) (enzyme)”, for which the stoichiometry N with GNMT W30F mutant is 4.

For “GNMT Y6E mutant (from UniProt Q14749 1-295) (enzyme)”, in the test with GNMT Y6E mutant, the stoichiometry N is 4.

Substance “GNMT Y244A mutant (from UniProt Q14749 1-295) (enzyme)” gave a stoichiometry N in the test with GNMT Y244A mutant of 4.

The substance “Glycine N-methyltransferase, wild type (from UniProt Q14749 1-295) (enzyme)” gave a stoichiometry N in test [1] of 4.
